Test results reported in patent publication US20240060126.

Key:
[1] = target: MspA-((Del-F80/S81/G112/V13)D56N/E59R/G75S/G77S/L88N/D90N/D91N/D118R/Q126R/D134R/E139K)8
[2] = target: MspA-((Del-L74/G75/D118/L119)E59R/L88N/D90N/D91N/Q126R/D134R/E139K)8
[3] = target: MspA-((Del-L74/G75/D118/L119)D56N/E57N/E59N/L88N/D90N/D91N/Q126R/D134R/E139K)8
[4] = target: MspA-((Del-L74/G75/D118/L119)D56N/E59Y/L88N/D90N/D91N/Q126R/D134R/E139K)8
[5] = target: MspA-((Del-L74/G75/D118/L119)D56N/E59W/L88N/D90N/D91N/Q126R/D134R/E139K)8
[6] = target: MspA-((Del-G75N76/A117/D118)D56N/E59R/G77S/L88N/D90N/D91N/Q126R/D134R/E139K)8
[7] = target: MspA-(D56N/E59R/G75S/G77S/L88N/D90N/D91N/D118R/Q126R/D134R/E139K)8
[8] = target: MspA-((Del-L74/G75/D118/L119)D56Y/E59R/L88N/D90N/D91N/Q126R/D134R/E139K)8
[9] = target: MspA-((Del-L74/G75/D118/L119)D56N/E57D/E59R/L88N/D90N/D91N/Q126R/D134R/E139K)8
[10] = target: MspA-((Del-L74/G75/D118/L119)D56N/E59R/L88N/D90N/D91N/Q126R/D134R/E139K)8
[11] = target: MspA-((Del-L74/G75/D118/L119)E59N/L88N/D90N/D91N/Q126R/D134R/E139K)8
[12] = target: MspA-((Del-L74/G75/D118/L119)E57R/E59N/L88N/D90N/D91N/Q126R/D134R/E139K)8

B1: T4 Dda-E94C/C109A/C136A/A360C (SEQ ID NO: 24 with mutations E94C/C109A/C136A/A360C) (protein)
chain: MTFDDLTEGQKNAFNIVMKAIKEKKHHVTINGPAGTGKTTLTKFIIEALISTGETGIILAAPTHAAKKILSKLSGKEASTIHSILKINPVTYECNVLFEQKEVPDLAKARVLICDEVSMYDRKLFKILLSTIPPWATIIGIGDNKQIRPVDPGENTAYISPFFTHKDFYQCELTEVKRSNAPIIDVATDVRNGKWIYDKVVDGHGVRGFTGDTALRDFMVNYFSIVKSLDDLFENRVMAFTNKSVDKLNSIIRKKIFETDKDFIVGEIIVMQEPLFKTYKIDGKPVSEIIFNNGQLVRIIEAEYTSTFVKARGVPGEYLIRHWDLTVETYGDDEYYREKIKIISSDEELYKFNLFLGKTCETYKNWNKGGKAPWSDFWDAKSQFSKVKALPASTFHKAQGMSVDRAFIYTPCIHYADVELAQQLLYVGVTRGRYDVFYV
Average Signal to Noise (S2N) [1]: 13
Mean Current Range [1]: 17.1 pA
Mean Noise of the Signal [1]: 1.32
Median Current Range [1]: 17.1 pA
Median Noise of the Signal [1]: 1.22
Standard Deviation of the Current Range [1]: 2.11 pA
Standard Deviation of the Noise of the Signal [1]: 0.32
Average Signal to Noise (S2N) [2]: 12.8
Mean Current Range [2]: 16.1 pA
Mean Noise of the Signal [2]: 1.26
Median Current Range [2]: 16.2 pA
Median Noise of the Signal [2]: 1.22
Standard Deviation of the Current Range [2]: 1.84 pA
Standard Deviation of the Noise of the Signal [2]: 0.24
Average Signal to Noise (S2N) [3]: 13
Mean Current Range [3]: 19 pA
Mean Noise of the Signal [3]: 1.46
Median Current Range [3]: 19.2 pA
Median Noise of the Signal [3]: 1.35
Standard Deviation of the Current Range [3]: 2.07 pA
Standard Deviation of the Noise of the Signal [3]: 0.36
Average Signal to Noise (S2N) [4]: 10.7
Mean Current Range [4]: 15.9 pA
Mean Noise of the Signal [4]: 1.48
Median Current Range [4]: 15.9 pA
Median Noise of the Signal [4]: 1.43
Median S2N [4]: 10.4
Percentage of complement slipping forwards [4]: 0.3%
Standard Deviation of S2N [4]: 0.66
Standard Deviation of the Current Range [4]: 1.92 pA
Standard Deviation of the Noise of the Signal [4]: 0.24
slips forward per kilobase [4]: less than 5 slips forward per kilobase
Average Signal to Noise (S2N) [5]: 11
Mean Current Range [5]: 15.2 pA
Mean Noise of the Signal [5]: 1.38
Median Current Range [5]: 15.1 pA
Median Noise of the Signal [5]: 1.32
Standard Deviation of the Current Range [5]: 1.85
Standard Deviation of the Noise of the Signal [5]: 0.26
Average Signal to Noise (S2N) [6]: 12.5
Mean Current Range [6]: 15.8 pA
Mean Noise of the Signal [6]: 1.27
Median Current Range [6]: 15.8 pA
Median Noise of the Signal [6]: 1.21
Standard Deviation of the Current Range [6]: 1.69 pA
Standard Deviation of the Noise of the Signal [6]: 0.24
Average Signal to Noise (S2N) [7]: 11.9
Mean Current Range [7]: 15.6 pA
Mean Noise of the Signal [7]: 1.31
Median Current Range [7]: 15.6 pA
Median Noise of the Signal [7]: 1.24
Standard Deviation of the Current Range [7]: 1.76
Standard Deviation of the Noise of the Signal [7]: 0.26
Average Signal to Noise (S2N) [8]: 12.9
Mean Current Range [8]: 15.9 pA
Mean Noise of the Signal [8]: 1.24
Median Current Range [8]: 15.9 pA
Median Noise of the Signal [8]: 1.19
Median S2N [8]: 13.3
Percentage of complement slipping forwards [8]: 0.6%
Standard Deviation of S2N [8]: 1.12
Standard Deviation of the Current Range [8]: 1.83 pA
Standard Deviation of the Noise of the Signal [8]: 0.22
Average Signal to Noise (S2N) [9]: 12.9
Mean Current Range [9]: 15.4 pA
Mean Noise of the Signal [9]: 1.19
Median Current Range [9]: 15.4 pA
Median Noise of the Signal [9]: 1.16
Median S2N [9]: 11.9
Percentage of complement slipping forwards [9]: 0.7%
Standard Deviation of S2N [9]: 0.33
Standard Deviation of the Current Range [9]: 1.77 pA
Standard Deviation of the Noise of the Signal [9]: 0.19
Average Signal to Noise (S2N) [10]: 12.5
Mean Current Range [10]: 15.3 pA
Mean Noise of the Signal [10]: 1.22
Median Current Range [10]: 15.3 pA
Median Noise of the Signal [10]: 1.17
Percentage of complement slipping forwards [10]: 0.49%
Standard Deviation of the Current Range [10]: 1.66 pA
Standard Deviation of the Noise of the Signal [10]: 0.2
slips forward per kilobase [10]: less than 5 slips forward per kilobase
Average Signal to Noise (S2N) [11]: 13.3
Mean Current Range [11]: 14.7 pA
Mean Noise of the Signal [11]: 1.11
Median Current Range [11]: 14.7 pA
Median Noise of the Signal [11]: 1.08
Standard Deviation of the Current Range [11]: 2.36 pA
Standard Deviation of the Noise of the Signal [11]: 0.19
Average Signal to Noise (S2N) [12]: 10.6
Mean Current Range [12]: 14.7 pA
Mean Noise of the Signal [12]: 1.4
Median Current Range [12]: 14.6 pA
Median Noise of the Signal [12]: 1.22
Standard Deviation of the Current Range [12]: 1.88
Standard Deviation of the Noise of the Signal [12]: 0.45
